Reference: the supplement of paper PMC9112550, “Optimization of the antimicrobial peptide Bac7 by deep mutational scanning” (BMC Biology, 2022)

Each sequence was assayed on Escherichia coli TOP10 (assay: shrunken log2 fold change of peptide-encoding DNA abundance (4.5 h post-induction vs induction); higher = less antimicrobial activity (less host growth inhibition)). Details: time post-induction: 4.5 h; library: site-saturation at positions 5, 18, 19, 20.
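Note: peptides expressed intracellularly from a pBAD plasmid library in pooled LB shake-flask culture, induced with 0.3% L-arabinose, DNA abundance read by NGS, three biological replicates, DESeq2 with apeglm shrinkage.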

Point of comparison: RRIRLRPPRLPRPRPRPETNPRP, “shrunken log2 fold change” value 0.467. Against it:
- RRIRSRPPRLPRPRPRPIGGPRP — lower, -0.0412
- RRIRIRPPRLPRPRPRPNFSPRP — lower, -0.26
- RRIRLRPPRLPRPRPRPDNEPRP — lower, -0.162
- RRIRHRPPRLPRPRPRPRTRPRP — within 0.2 log units, 0.476
- RRIRERPPRLPRPRPRPPRNPRP — lower, 0.0296
- RRIRSRPPRLPRPRPRPTFEPRP — lower, 0.0262
- RRIRIRPPRLPRPRPRPKVGPRP — lower, 0.164
- RRIRHRPPRLPRPRPRPLWMPRP — lower, -0.138
- RRIRCRPPRLPRPRPRPHVVPRP — lower, -0.137
- RRIRDRPPRLPRPRPRPSCQPRP — lower, 0.17
- RRIRFRPPRLPRPRPRPDKGPRP — lower, -0.0555
- RRIRERPPRLPRPRPRPEHVPRP — lower, -0.017
- RRIRTRPPRLPRPRPRPMNVPRP — lower, 0.0707
- RRIRSRPPRLPRPRPRPAMIPRP — within 0.2 log units, 0.365
- RRIRTRPPRLPRPRPRPQVLPRP — lower, -0.0479
- RRIRVRPPRLPRPRPRPETVPRP — lower, -0.103
- RRIRSRPPRLPRPRPRPNQVPRP — lower, -0.0256
- RRIRKRPPRLPRPRPRPWFQPRP — lower, -0.0934
- RRIRERPPRLPRPRPRPRPCPRP — lower, -0.0205
- RRIRVRPPRLPRPRPRPWIRPRP — lower, -0.151
- RRIRSRPPRLPRPRPRPLHMPRP — lower, 0.0919
- RRIRQRPPRLPRPRPRPPFGPRP — lower, 0.219
- RRIRIRPPRLPRPRPRPSHSPRP — lower, -1.02
- RRIRPRPPRLPRPRPRPQNGPRP — lower, -0.281
- RRIRIRPPRLPRPRPRPTINPRP — lower, -0.65
- RRIRDRPPRLPRPRPRPEHHPRP — lower, 0.155
- RRIRERPPRLPRPRPRPRVQPRP — lower, 0.00573
- RRIRARPPRLPRPRPRPYDYPRP — lower, -0.282
- RRIRARPPRLPRPRPRPQFVPRP — lower, -0.0892
- RRIRTRPPRLPRPRPRPECFPRP — lower, 0.146
- RRIRNRPPRLPRPRPRPPQQPRP — within 0.2 log units, 0.294
- RRIRFRPPRLPRPRPRPSGEPRP — lower, -0.135
- RRIRQRPPRLPRPRPRPPPSPRP — higher, 0.731
- RRIRDRPPRLPRPRPRPPNMPRP — lower, 0.0281
- RRIRQRPPRLPRPRPRPTKDPRP — lower, -0.198
- RRIRCRPPRLPRPRPRPPVNPRP — lower, -0.0382
- RRIRGRPPRLPRPRPRPKGKPRP — higher, 1.16
- RRIRRRPPRLPRPRPRPIRPPRP — lower, 0.198
- RRIRERPPRLPRPRPRPMQPPRP — lower, -0.0115
- RRIRGRPPRLPRPRPRPIRTPRP — lower, 0.21
- RRIRPRPPRLPRPRPRPSGDPRP — lower, 0.14
- RRIRYRPPRLPRPRPRPYYQPRP — lower, -0.462
- RRIRGRPPRLPRPRPRPNIWPRP — within 0.2 log units, 0.373
- RRIRHRPPRLPRPRPRPHLKPRP — lower, -0.124
- RRIRPRPPRLPRPRPRPPVQPRP — within 0.2 log units, 0.341
- RRIRHRPPRLPRPRPRPGCRPRP — higher, 0.704
- RRIRMRPPRLPRPRPRPYHHPRP — lower, -0.702
- RRIRNRPPRLPRPRPRPAIEPRP — lower, 0.00973
- RRIRARPPRLPRPRPRPRLPPRP — higher, 0.667
- RRIRPRPPRLPRPRPRPVERPRP — within 0.2 log units, 0.289
- RRIRRRPPRLPRPRPRPATNPRP — lower, 0.189
- RRIRSRPPRLPRPRPRPPYMPRP — lower, -0.316
- RRIRNRPPRLPRPRPRPKRWPRP — lower, 0.0633
- RRIRRRPPRLPRPRPRPVYGPRP — lower, -0.0668
- RRIRSRPPRLPRPRPRPAVDPRP — within 0.2 log units, 0.462
- RRIRKRPPRLPRPRPRPANIPRP — lower, 0.214
- RRIRCRPPRLPRPRPRPWVWPRP — lower, -0.00389
- RRIRGRPPRLPRPRPRPARVPRP — within 0.2 log units, 0.614
- RRIRKRPPRLPRPRPRPECAPRP — within 0.2 log units, 0.339
- RRIRTRPPRLPRPRPRPIQSPRP — lower, -0.0351
- RRIRLRPPRLPRPRPRPSDQPRP — lower, -0.18
- RRIRHRPPRLPRPRPRPMLGPRP — lower, -0.00277
- RRIRQRPPRLPRPRPRPHIWPRP — lower, -0.333
- RRIRCRPPRLPRPRPRPIDWPRP — lower, 0.0664
- RRIRCRPPRLPRPRPRPFWFPRP — lower, -0.245
- RRIRFRPPRLPRPRPRPLKMPRP — lower, -0.428
- RRIRPRPPRLPRPRPRPALIPRP — lower, -0.0205
- RRIRDRPPRLPRPRPRPMRTPRP — within 0.2 log units, 0.519
- RRIRPRPPRLPRPRPRPCWSPRP — lower, 0.0606
- RRIRYRPPRLPRPRPRPVLDPRP — lower, -0.265
- RRIRIRPPRLPRPRPRPNRYPRP — lower, -0.295
- RRIRSRPPRLPRPRPRPQVQPRP — within 0.2 log units, 0.374
- RRIRCRPPRLPRPRPRPKWAPRP — lower, 0.0877
- RRIRMRPPRLPRPRPRPRRKPRP — within 0.2 log units, 0.416
